Article PMC9482650, “Quantitative fragmentomics allow affinity mapping of interactomes” (Nature Communications, 2022)

T1: DLG3_2, Q92796
T1 sequence (Q92796 221-321, limits assumed, looked up): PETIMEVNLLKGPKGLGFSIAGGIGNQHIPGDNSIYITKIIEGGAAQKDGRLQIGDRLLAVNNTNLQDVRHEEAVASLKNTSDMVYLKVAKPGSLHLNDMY

T2: SYNJ2BP, P57105
T2 sequence (P57105 8-110, limits assumed, looked up): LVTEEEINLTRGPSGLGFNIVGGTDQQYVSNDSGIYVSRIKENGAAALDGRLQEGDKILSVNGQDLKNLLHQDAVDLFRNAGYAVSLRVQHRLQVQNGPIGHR

T3: ARHGAP21, Q5T5U3
T3 sequence (Q5T5U3 45-169, limits assumed, looked up): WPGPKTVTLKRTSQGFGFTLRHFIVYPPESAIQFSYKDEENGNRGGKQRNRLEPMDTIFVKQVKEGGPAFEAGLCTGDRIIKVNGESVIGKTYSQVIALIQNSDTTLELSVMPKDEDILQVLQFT

T4: NHERF3_1, Q5T2W1
T4 sequence (Q5T2W1 4-100, limits assumed, looked up): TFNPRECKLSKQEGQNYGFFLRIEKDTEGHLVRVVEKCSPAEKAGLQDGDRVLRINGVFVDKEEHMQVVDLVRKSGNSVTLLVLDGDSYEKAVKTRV

T5: HTRA4, P83105
T5 sequence (P83105 378-476, limits assumed, looked up): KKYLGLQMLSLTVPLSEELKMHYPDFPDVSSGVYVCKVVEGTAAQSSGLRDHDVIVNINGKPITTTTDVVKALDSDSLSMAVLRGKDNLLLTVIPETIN

T6: SNTG1, Q9NSN8
T6 sequence (Q9NSN8 52-150, limits assumed, looked up): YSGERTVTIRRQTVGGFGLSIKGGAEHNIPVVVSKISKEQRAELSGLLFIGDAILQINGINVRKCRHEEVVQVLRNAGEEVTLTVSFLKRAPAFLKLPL

T7: LIN7B, Q9HAP6
T7 sequence (Q9HAP6 88-185, limits assumed, looked up): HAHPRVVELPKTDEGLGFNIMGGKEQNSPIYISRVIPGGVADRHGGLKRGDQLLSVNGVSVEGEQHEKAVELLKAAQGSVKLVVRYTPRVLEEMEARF

T8: MPP6, Q9NZW5
T8 sequence (Q9NZW5 125-219, limits assumed, looked up): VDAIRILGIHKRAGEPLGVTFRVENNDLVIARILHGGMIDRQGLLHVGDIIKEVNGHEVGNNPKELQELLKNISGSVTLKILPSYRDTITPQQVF

T9: PDZRN3_1, Q9UPQ7
T9 sequence (Q9UPQ7 244-349, limits assumed, looked up): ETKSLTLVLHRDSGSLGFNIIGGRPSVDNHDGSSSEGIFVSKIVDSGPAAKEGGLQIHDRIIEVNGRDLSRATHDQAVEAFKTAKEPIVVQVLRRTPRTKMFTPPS

T10: GRIP1_3, Q9Y3R0
T10 sequence (Q9Y3R0 247-346, limits assumed, looked up): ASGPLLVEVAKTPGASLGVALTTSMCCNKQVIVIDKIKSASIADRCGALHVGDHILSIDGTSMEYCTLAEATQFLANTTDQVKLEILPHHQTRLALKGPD

T11: DFNB31_2, Q9P202
T11 sequence (Q9P202 274-371, limits assumed, looked up): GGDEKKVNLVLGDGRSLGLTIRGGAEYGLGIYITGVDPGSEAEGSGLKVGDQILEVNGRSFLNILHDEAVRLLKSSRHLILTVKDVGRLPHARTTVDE

T12: MPP7, Q5T2T1
T12 sequence (Q5T2T1 134-230, limits assumed, looked up): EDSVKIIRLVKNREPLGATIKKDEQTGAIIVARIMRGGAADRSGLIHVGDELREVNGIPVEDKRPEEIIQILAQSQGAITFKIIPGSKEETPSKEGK


Columns and labels:
Assay in all cases: holdup assay
Parameters in all cases: key: below the threshold = too weak to quantify, mostly under pKd 3.1 to 4
Conditions in all cases: plain residues with an end cap or a label only (N-terminal biotin on a linker: ado-ado)
[1] = target: T1, DLG3_2, Q92796
[2] = target: T2, SYNJ2BP, P57105
[3] = target: Inadl_2, Q8NI35
Sequence of Inadl_2, Q8NI35 (Q8NI35 238-335): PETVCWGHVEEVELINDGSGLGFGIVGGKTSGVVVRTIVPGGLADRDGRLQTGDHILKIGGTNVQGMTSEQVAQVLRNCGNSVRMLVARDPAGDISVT

[4] = target: Inadl_10, Q8NI35
Sequence of Inadl_10, Q8NI35 (Q8NI35 1673-1763): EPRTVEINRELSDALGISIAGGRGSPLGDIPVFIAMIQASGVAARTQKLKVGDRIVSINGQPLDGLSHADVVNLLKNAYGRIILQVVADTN

[5] = target: MAGI2_5, Q86UL8
Sequence of MAGI2_5, Q86UL8 (Q86UL8 915-1017): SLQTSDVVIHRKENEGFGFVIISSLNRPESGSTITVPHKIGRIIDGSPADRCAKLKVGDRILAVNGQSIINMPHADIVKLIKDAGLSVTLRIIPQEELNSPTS

[6] = target: PICK1, Q9NRD5
Sequence of PICK1, Q9NRD5 (Q9NRD5 17-115): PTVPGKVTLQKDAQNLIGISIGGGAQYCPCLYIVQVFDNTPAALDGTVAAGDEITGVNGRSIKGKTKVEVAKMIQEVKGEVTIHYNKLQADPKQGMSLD

[7] = target: T3, ARHGAP21, Q5T5U3
[8] = target: T4, NHERF3_1, Q5T2W1
[9] = target: T5, HTRA4, P83105
[10] = target: T6, SNTG1, Q9NSN8
[11] = target: T7, LIN7B, Q9HAP6
[12] = target: MAGI1_2, Q96QZ7
Sequence of MAGI1_2, Q96QZ7 (Q96QZ7 456-580): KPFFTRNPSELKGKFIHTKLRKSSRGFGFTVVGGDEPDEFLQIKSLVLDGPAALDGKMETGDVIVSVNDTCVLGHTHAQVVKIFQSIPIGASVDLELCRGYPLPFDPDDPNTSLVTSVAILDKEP

[13] = target: GRIP2_7, Q9C0E4
Sequence of GRIP2_7, Q9C0E4 (Q9C0E4 934-1023): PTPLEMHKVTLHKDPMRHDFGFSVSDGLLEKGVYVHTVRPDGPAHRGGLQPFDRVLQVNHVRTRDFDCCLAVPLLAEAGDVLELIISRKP

[14] = target: LDB3, O75112
Sequence of LDB3, O75112 (O75112 1-94): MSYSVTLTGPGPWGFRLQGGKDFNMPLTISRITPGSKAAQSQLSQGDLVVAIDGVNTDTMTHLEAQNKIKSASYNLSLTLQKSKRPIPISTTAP

[15] = target: T8, MPP6, Q9NZW5
[16] = target: T9, PDZRN3_1, Q9UPQ7
[17] = target: T10, GRIP1_3, Q9Y3R0
[18] = target: T11, DFNB31_2, Q9P202
[19] = target: Inadl_6, Q8NI35
Sequence of Inadl_6, Q8NI35 (Q8NI35 1058-1167): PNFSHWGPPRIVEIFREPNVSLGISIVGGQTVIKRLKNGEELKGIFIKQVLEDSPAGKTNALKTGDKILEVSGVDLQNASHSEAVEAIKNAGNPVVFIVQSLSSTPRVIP

[20] = target: MAGI3_2, Q5TCQ9
Sequence of MAGI3_2, Q5TCQ9 (Q5TCQ9 398-503): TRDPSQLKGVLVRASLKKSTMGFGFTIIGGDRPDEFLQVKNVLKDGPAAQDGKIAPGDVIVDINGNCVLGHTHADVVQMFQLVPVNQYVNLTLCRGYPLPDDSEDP

[21] = target: T12, MPP7, Q5T2T1
[22] = target: FRMPD2_3, Q68DX3
Sequence of FRMPD2_3, Q68DX3 (Q68DX3 1073-1166): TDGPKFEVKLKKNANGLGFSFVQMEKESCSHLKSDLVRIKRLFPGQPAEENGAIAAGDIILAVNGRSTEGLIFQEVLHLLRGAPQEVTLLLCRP

[23] = target: GIPC2, Q8TF65
Sequence of GIPC2, Q8TF65 (Q8TF65 112-203): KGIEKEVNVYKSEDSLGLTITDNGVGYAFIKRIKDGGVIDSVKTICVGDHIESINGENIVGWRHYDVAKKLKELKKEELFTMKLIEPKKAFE

[24] = target: GRIP2_5, Q9C0E4
Sequence of GRIP2_5, Q9C0E4 (Q9C0E4 544-642): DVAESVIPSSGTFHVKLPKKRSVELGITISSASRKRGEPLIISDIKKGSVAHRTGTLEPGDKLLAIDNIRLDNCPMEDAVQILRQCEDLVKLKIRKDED

Binder | pKd [1] | pKd [2] | pKd [3] | pKd [4] | pKd [5] | pKd [6] | pKd [7] | pKd [8] | pKd [9] | pKd [10] | pKd [11] | pKd [12] | pKd [13] | pKd [14] | pKd [15] | pKd [16] | pKd [17] | pKd [18] | pKd [19] | pKd [20] | further results
LDKESFLTWL [YAP1, P46937] | below the threshold | 4.47 | 3.91 | 5.45 | 4.18 | below the threshold | 4.89 | 5.1 | 4.65 | below the threshold | 3.48 | 3.49 | 4.05 | 4.36 | below the threshold | 3.73 | below the threshold | below the threshold | 5.66 | 4.75 | pKd [21]: 3.72; pKd [22]: below the threshold; pKd [23]: below the threshold; pKd [24]: below the threshold
RDFDYIADWC [PKN2, Q16513] | 4.16 | 3.73 | below the threshold | below the threshold | 3.95 | 4.06 | 3.71 | 4.27 | 4.9 | below the threshold | 3.9 | below the threshold | below the threshold | below the threshold | below the threshold | below the threshold | below the threshold | below the threshold | 3.56 | below the threshold | pKd [21]: below the threshold; pKd [22]: below the threshold; pKd [23]: below the threshold; pKd [24]: below the threshold
TGPWKNETTV [ADGRA1, Q86SQ6] | 5.01 | 5.13 | below the threshold | below the threshold | 4.02 | below the threshold | below the threshold | below the threshold | 3.92 | 4.19 | 3.54 | 4.67 | below the threshold | below the threshold | below the threshold | 4.07 | below the threshold | below the threshold | below the threshold | 5.29 | pKd [21]: below the threshold; pKd [22]: below the threshold; pKd [23]: 4.24; pKd [24]: below the threshold
VRPGVKESLV [SCN4A, P35499] | 5 | 5.09 | below the threshold | below the threshold | 5.03 | below the threshold | below the threshold | 4.6 | below the threshold | 4.85 | 4.04 | 4.6 | below the threshold | below the threshold | 3.67 | 4.38 | below the threshold | 3.95 | 3.54 | 5.52 | pKd [21]: below the threshold; pKd [22]: below the threshold; pKd [23]: below the threshold; pKd [24]: below the threshold
RRLQGTSSMV [GOLT1A, Q6ZVE7] | 4.67 | 4.72 | below the threshold | below the threshold | 4 | 4.03 | below the threshold | 4.09 | below the threshold | 3.7 | 3.72 | 4.04 | below the threshold | below the threshold | below the threshold | below the threshold | below the threshold | below the threshold | below the threshold | 5.02 | pKd [21]: below the threshold; pKd [22]: below the threshold; pKd [23]: below the threshold; pKd [24]: below the threshold
NRVDSKETEC [ADAM17, P78536] | 4.67 | 4.28 | below the threshold | below the threshold | 3.92 | 4.08 | below the threshold | 3.81 | below the threshold | 3.63 | 4.05 | below the threshold | below the threshold | below the threshold | below the threshold | 3.57 | below the threshold | below the threshold | below the threshold | below the threshold | pKd [21]: 3.65; pKd [22]: below the threshold; pKd [23]: 4.27; pKd [24]: below the threshold
